These results are taken from patent US20180371095A1.

The target of this assay is recombinant human VSIG4 (rhVSIG4), construct not stated (human) (UniProt Q9Y279). Put plainly: ELISA, soluble rhVSIG4 coated, streptavidin-HRP detection, background corrected.

For “biotinylated rhSIGLEC-7 (from UniProt Q9Y286 19-357) (ligand)”, the absorbance at 452 nm came out at 2.3 absorbance.
